The values that follow come from patent publication US7109299.

Bridge positions count the residues as written; N and C are the ends. Ends that are not written are not given here.

The target in assay [1] is T1, IL-5RαECD, extracellular domain (ECD) of the human IL-5 receptor α chain, soluble (human) (UniProt Q01344).
T1 sequence (Q01344 whole entry, looked up): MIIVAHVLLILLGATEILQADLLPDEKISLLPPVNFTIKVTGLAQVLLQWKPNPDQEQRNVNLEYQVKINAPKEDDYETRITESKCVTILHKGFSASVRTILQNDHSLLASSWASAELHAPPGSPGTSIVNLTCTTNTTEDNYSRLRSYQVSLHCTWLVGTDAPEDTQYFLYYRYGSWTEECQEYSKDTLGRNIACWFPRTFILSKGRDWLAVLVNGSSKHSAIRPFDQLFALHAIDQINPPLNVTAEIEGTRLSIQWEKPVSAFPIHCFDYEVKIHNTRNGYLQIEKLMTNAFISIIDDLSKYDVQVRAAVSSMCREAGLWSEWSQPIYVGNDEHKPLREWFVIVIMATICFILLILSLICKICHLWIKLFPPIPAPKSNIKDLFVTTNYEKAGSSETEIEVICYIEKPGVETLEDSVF
The experiment in a line: scintillation proximity competition assay, dimer against 20 pM [125I] IL-5 on IL-5Rα coated beads.

In assay [2] the target is T1, IL-5RαECD, extracellular domain (ECD) of the human IL-5 receptor α chain, soluble (human). The experiment in a line: competition with [125I] IL-5 for binding to immobilised IL-5Rα ECD; peptide after 10 days, disulfide-linked dimer.

B1: dimer of (H)-…-(NH2) (peptide)
peptide: H-EGYVCVEWARCPTCR-NH2
modifications: disulfide (positions not given here); also: dimer, intramolecular and intermolecular disulfide linkages, places not given here
In assay [1], B1 returned an SPA pIC50 of 8.1.

B2: dimeric form of AF17362 (spontaneously formed disulfide-linked dimer) (peptide)
peptide: TGGGDGYVCVEWARCPTCK
modifications: disulfide 15-18; also: homodimer linked by a Cys9-Cys9 interchain disulfide, disulfide at 9, other end not in the chain
As to B2, in assay [2], the IC50 turned out to be 0.55 nM.

B3: dimer of (H)-…-(NH2) (peptide)
peptide: H-EGYVCVEFARCPTCR-NH2
modifications: disulfide (positions not given here); also: dimer, intramolecular and intermolecular disulfides, places not given here
With B3, the SPA pIC50 in assay [1] is 6.4.
